Source: paper doi:10.1101/432989 (bioRxiv, 2018)

How the values were obtained:
[1] = molecular target: MazF-mt9 (Mycobacterium tuberculosis); experiment: ITC
[2] = molecular target: the molecule itself; experiment: crystal structure

Binder | Kd [1] | fold increase of KD against WT MazE-mt9 [1] | further results
MazE-mt9 (natural protein) MSTSTTIRVSTQTRDRLAAQARERGISMSALLTELAAQAERQAIFRAEREASHAETTTQAVRDEDREWEGTVGDGLG | 17.5 nM |  | binding result [2]: binds
MazE-mt9 R46A-E48A-D74A triple mutant (natural protein) MSTSTTIRVSTQTRDRLAAQARERGISMSALLTELAAQAERQAIFAAAREASHAETTTQAVRDEDREWEGTVGAGLG |  | 8 fold | 
MazE-mt9 D74A mutant (natural protein) MSTSTTIRVSTQTRDRLAAQARERGISMSALLTELAAQAERQAIFRAEREASHAETTTQAVRDEDREWEGTVGAGLG |  | 2 fold | 
MazE-mt1 (natural protein) MKLSVSLSDDDVAILDAYVKRAGLPSRSAGLQHAIRVLRYPTLEDDYANAWQEWSAAGDTDAWEQTVGDGVGDAPR | 59.3 nM |  | 
MazE-mt1 D69A mutant (natural protein) MKLSVSLSDDDVAILDAYVKRAGLPSRSAGLQHAIRVLRYPTLEDDYANAWQEWSAAGDTDAWEQTVGAGVGDAPR |  |  | fold weakening of affinity against WT MazE-mt1 [1]: 5.3 fold
